Like-named read-outs stand apart in the source and are kept apart here.
How the values were obtained:
Cys14 [1] = biological target: T1, Cys14 (UniProt position 15, AANWKCNGSES); experiment: chemical modification; conditions: not stated for the 1 min MMTS incubation (activity assay at 25°C); 100 mM TEA, 10 mM EDTA; ligand-free folded enzyme, 250 ug/mL
Cys14 [2] = biological target: T2, Cys14 (UniProt position 14, AANWKCNGSQQ); experiment: chemical modification; conditions: not stated for the 1 min MMTS incubation (activity assay at 25°C); 100 mM TEA, 10 mM EDTA; ligand-free folded enzyme, 250 ug/mL
Cys14 [3] = biological target: T1, Cys14; conditions: cited from earlier work
Cys14 [4] = biological target: T2, Cys14; conditions: cited from earlier work

Substance | pKa (Cys14 [1]) | pKa (Cys14 [2]) | pKa (Cys14 [3]) | pKa (Cys14 [4])
Triosephosphate isomerase triple mutant TcTIM: L28F, L100A, Q115A (Trypanosoma cruzi; L28F;L100A;Q115A) | 10.69 ± 0.01 | – | – | –
Triosephosphate isomerase triple mutant TbTIM: F28L, A100L, A115Q (Trypanosoma brucei; F28L;A100L;A115Q) | – | 9.23 ± 0.03 | – | –
Triosephosphate isomerase (WT TcTIM) (Trypanosoma cruzi) | 9.24 ± 0.04 | – | 9.27 | –
Triosephosphate isomerase (WT TbTIM) (Trypanosoma brucei) | – | 10.56 ± 0.22 | – | 10.53
